B1: Purified, recombinant RAB1B (natural protein)
chain: not shown
notes: RAB1B, human, full length, from pGST-Parallel-1, GST removed by TEV protease; source: E. coli B834(DE3), purified (glutathione-Sepharose 4B, TEV cleavage, Ni-NTA, Superdex 200)
B2: GST-RAB1A (wild type) (natural protein)
chain: not shown
notes: RAB1A, human, full length, cloned into pGST-Parallel-1; also called GST-tagged RAB1A; GST-RAB1A/B; source: E. coli B834(DE3), purified on glutathione-Sepharose 4B
B3: Purified, recombinant RAB1A (natural protein)
chain: not shown
notes: RAB1A, human, full length, from pGST-Parallel-1, GST removed by TEV protease; source: E. coli B834(DE3), purified (glutathione-Sepharose 4B, TEV cleavage, Ni-NTA, Superdex 200)
B4: Endogenous GOLPH3 (natural protein, human (endogenous in H4), UniProt Q9H4A6 1-298, looked up)
chain: MTSLTQRSSGLVQRRTEASRNAADKERAAGGGAGSSEDDAQSRRDEQDDDDKGDSKETRLTLMEEVLLLGLKDREGYTSFWNDCISSGLRGCMLIELALRGRLQLEACGMRRKSLLTRKVICKSDAPTGDVLLDEALKHVKETQPPETVQNWIELLSGETWNPLKLHYQLRNVRERLAKNLVEKGVLTTEKQNFLLFDMTTHPLTNNNIKQRLIKKVQEAVLDKWVNDPHRMDRRLLALIYLAHASDVLENAFAPLLDEQYDLATKRVRQLLDLDPEVECLKANTNEVLWAVVAAFTK
notes: Golgi phosphoprotein 3 (GOLPH3), endogenous in human H4 neuroglioma cells; source: endogenous, H4 human neuroglioma cells, soluble protein extract
B5: GST-RAB1B (wild type) (natural protein)
chain: not shown
notes: RAB1B, human, full length, cloned into pGST-Parallel-1; also called GST-tagged RAB1B; GST-RAB1A/B; source: E. coli B834(DE3), purified on glutathione-Sepharose 4B

Key:
[1] = biological target: T1, Recombinant, untagged GOLPH3 (human, UniProt Q9H4A6 1-298); test: ITC; GOLPH3 (100 μM) in the chamber, RAB1A or RAB1B (1 mM) injected; 25°C; 50 mM Tris-HCl, 150 mM NaCl, 1 mM DTT, pH 7.4; one-site model; no nucleotide exchange; details: both partners purified
T1 construct: Golgi phosphoprotein 3 (GOLPH3), human, full-length cDNA NM_022130, cloned into pGST-Parallel-1; removal of GST by TEV is surmised from the vector and from the method told for RAB1; also called purified recombinant GOLPH3; not shown: GST, N-terminal, cleaved

[2] = biological target: T1, Recombinant, untagged GOLPH3; test: pull-down; GST-RAB1A/B (50 μM) or GST on glutathione-Sepharose 4B, increasing concentrations of recombinant GOLPH3; 20 mM HEPES, 100 mM NaCl, 5 mM MgCl2, 1 mM DTT, 1% CHAPS, pH 7.2; 3 h, 4°C; Coomassie, densitometry, non-linear fit assuming 1:1; apparent KD; details: both partners purified
GST-RAB1B-Q67L = biological target: T2, GST-RAB1B-Q67L (human, UniProt Q9H0U4 1-201, Q67L); test: pull-down; GST or GST-tagged RAB1A/B variants on glutathione-Sepharose 4B, soluble protein extract of H4 cells (0.5 mg) with protease and phosphatase inhibitors; binding buffer-1; 3 h, 4°C; immunoblot for GOLPH3, densitometry; details: one partner purified
T2 construct: RAB1B, human, full length, in pGST-Parallel-1, GTP-locked variant; also called GST-tagged, GTP-locked active state variant of RAB1B; source: E. coli B834(DE3), purified on glutathione-Sepharose 4B

GST-RAB1A-Q70L = biological target: T3, GST-RAB1A-Q70L (human, UniProt P62820 1-205, Q70L); test: as above; details: one partner purified
T3 construct: RAB1A, human, full length, in pGST-Parallel-1, GTP-locked variant; also called GST-tagged, GTP-locked active state variant of RAB1A; source: E. coli B834(DE3), purified on glutathione-Sepharose 4B

GFP-RAB1A-Q70L = biological target: T4, GFP-RAB1A-Q70L (human, UniProt P62820 1-205, Q70L); test: co-IP; GFP-Trap agarose beads with extracts (0.2 mg) of H4 cells expressing GFP or GFP-RAB1A/B variants, supplemented with extract (0.3 mg) of non-transfected cells; 25 mM Tris-HCl, 50 mM NaCl, 0.1% NP-40, pH 7.5; 1.5-4 h, 4°C; immunoblot for GOLPH3, densitometry; details: partners not purified
T4 construct: RAB1A, human, pEGFP construct, GTP-locked variant; also called GFP-tagged GTP-locked active state variant of RAB1A; source: H4 cells, transfected (pEGFP construct), in soluble protein extract

GFP-RAB1B-Q67L = biological target: T5, GFP-RAB1B-Q67L (human, UniProt Q9H0U4 1-201, Q67L); test: as above; details: partners not purified
T5 construct: RAB1B, human, pEGFP construct, GTP-locked variant; also called GFP-tagged GTP-locked active state variant of RAB1B; source: H4 cells, transfected (pEGFP construct), in soluble protein extract
T5 sequence (Q9H0U4 whole entry Q67L): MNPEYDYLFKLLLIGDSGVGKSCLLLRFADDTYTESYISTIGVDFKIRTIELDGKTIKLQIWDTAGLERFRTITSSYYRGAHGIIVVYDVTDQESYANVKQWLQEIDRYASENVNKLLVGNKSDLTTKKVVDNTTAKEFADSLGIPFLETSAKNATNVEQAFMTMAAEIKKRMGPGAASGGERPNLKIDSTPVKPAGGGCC

T4 sequence (P62820 whole entry Q70L): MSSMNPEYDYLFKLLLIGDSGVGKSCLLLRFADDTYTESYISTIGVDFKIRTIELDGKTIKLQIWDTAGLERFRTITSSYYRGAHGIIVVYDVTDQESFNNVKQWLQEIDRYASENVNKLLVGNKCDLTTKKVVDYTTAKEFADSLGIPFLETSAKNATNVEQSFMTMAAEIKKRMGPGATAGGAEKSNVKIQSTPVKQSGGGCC
T3 sequence (P62820 whole entry Q70L): as above
T2 sequence (Q9H0U4 whole entry Q67L): as the sequence (Q9H0U4 whole entry Q67L) above

| Binder | Kd [1] [µM] | stoichiometry N [1] | Kd [2] [µM] | also measured |
| --- | --- | --- | --- | --- |
| B1 | 78.4 | 1 |  |  |
| B2 |  |  | 54.7 ± 4.2 |  |
| B3 | 61.9 | 1 |  |  |
| B4 |  |  |  | fold of GOLPH3 pulled down against the wild type variant (GST-RAB1B-Q67L): ~1.1 times; fold of GOLPH3 pulled down against the wild type variant (GST-RAB1A-Q70L): ~1.2 times; fold of GOLPH3 pulled down against the wild type variant (GFP-RAB1A-Q70L): ~1.2 times; fold of GOLPH3 pulled down against the wild type variant (GFP-RAB1B-Q67L): ~1.1 times |
| B5 |  |  | 64.2 ± 3.7 |  |

— publication PMC7425898, “Human Golgi phosphoprotein 3 is an effector of RAB1A and RAB1B” (PLoS ONE, 2020)
